According to paper PMC4894760 (Journal of controlled release : official journal of the …, 2016):

Target: recombinant human SDF1 (free SDF1) (human, UniProt P48061-2 22-89)
Assay: SPR

Chain of recombinant human SDF1 (free SDF1) (P48061 22-89): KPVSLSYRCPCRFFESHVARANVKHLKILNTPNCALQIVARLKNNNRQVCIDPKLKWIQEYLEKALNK

Kd: 0.3 nM
B1: recombinant human CXCR4 (receptor, UniProt P61073 1-352, looked up)
chain: MEGISIYTSDNYTEEMGSGDYDSMKEPCFREENANFNKIFLPTIYSIIFLTGIVGNGLVILVMGYQKKLRSMTDKYRLHLSVADLLFVITLPFWAVDAVANWYFGNFLCKAVHVIYTVNLYSSVLILAFISLDRYLAIVHATNSQRPRKLLAEKVVYVGVWIPALLLTIPDFIFANVSEADDRYICDRFYPNDLWVVVFQFQHIMVGLILPGIVILSCYCIIISKLSHSKGHQKRKALKTTVILILAFFACWLPYYIGISIDSFILLEIIKQGCEFENTVHKWISITEALAFFHCCLNPILYAFLGAKFKTSAQHALTSVSRGSSLKILSKGKRGGHSSVSTESESSSFHSS
